In patent US20260364186A1, “Chemical Conjugates, Compositions, and Methods of Preparation and Use Thereof” (Transfection Holdings Limited, priority 2022, published 2026):
Entries after “also recorded” stand apart in the source; their conditions may differ.

Key:
[1] = system: neutrophils; test: FACS uptake of BODIPY FL conjugates in PBMCs (Example 3); format: cell-based, human; conditions: 135 nM
Method: (§1) FIG. 3A. Conjugate compounds coupled to BODIPY FL were tested for uptake using 135 nM each conjugate and 4.5 minute incubation with human lymphocytes, monocytes and neutrophils (from a healthy donor). Mean fluorescent intensities (MFI). 1,000 cells (lymphocytes), 500 cells (monocytes) and 250 cells (neutrophils) sorted by FACS. Bars represent mean±SD. Results represent a single experiment done in duplicate.
(§2) In addition to this, 25 mL of full blood was collected from a healthy donor in lithium-heparin vacutainer. Peripheral blood mononuclear cells (PBMCs) were collected after ficoll separation. PBMCs then were centrifuge at 400 g for 5 minutes. Supernatant was removed from the cells and resuspended with 20 mL of HBSS with a final concentration of 417,500 cells/mL. Then, 479 μL of cells suspension were poured into Eppendorf tube and 1000 μL of 200 nM drug solution in HBSS were added to afford 135 nM final drug concentration, incubated at 37 °C for 5 minutes. After incubation time, PBMCs were centrifuged at 400 g for 5 minutes. Supernatant was removed from the cells and pellet resuspended with 200 μL of HBSS. Suspension was transferred to 96 well-plate and run on FACS machine, approximately 1,000-250 cells analysed. The FACS results output represented the mean of the fluorescence intensities (in arbitrary units) measured for cells sorted in every sample.

[2] = system: monocytes; test: as above; format: cell-based, human; conditions: 135 nM
Method: as §1, §2

[3] = system: NZM40 (NRAS Q16H) melanoma cell line; test: Sulforhodamine B (SRB) assay of proliferation (Example 7); format: cell-based, human; conditions: 1 μM, 72 h
Method: FIG. 7: The 124 conjugate was tested for toxicity using 1 μM final concentration and 72 hour incubation with melanoma cell line NZM40 (NRAS Q16H mutant metastatic melanoma). Cell densities were calculated according with sulforhodamine B assay (SRB assay), absorbance at 515 nm. Cells images of DMSO control and 124 were taken at 24, 48 and 72 h through brightfield using conventional microscope. Results represents a single experiment done in a single sample.
Materials and methods: NZM40 cell line is described above. 1×10^6 NZM40 cells diluted in MEMα media were added to 2×10 cm plates and left to settle for 24 hours. After 24 hour settle period, media was removed from cells and 9900 μL fresh MEMα media added to each plate. 100 μL of DMSO were added to control plate and 100 μL [100 μM 124 in DMSO] were added to treatment plate to afford a final concentration of 1 μM 124. Cells were incubated at 37 °C and 5% 02 for 72 hours and cell images were taken every 24 hours. After 72 hour incubation, sulforhodamine B (SRB) assay was performed to compare final cell density. For this, 2.5 mL of cold 50% (w/v) TCA were added to DMSO (control) and 124 plates. Cells were incubated for 1 hour in TCA at 4 °C. […] The 96 well plate was analysed on plate reader, at wavelength of 515 nm. Results represent the absorbance of cells without dilution, 1:2 dilution, 1:4 dilution and 1:8 dilution.

[4] = system: PBMCs / normal blood cells; test: FACS uptake of BODIPY FL conjugates in PBMCs (Example 3); format: cell-based, human; conditions: 135 nM
Method: as §1, §2

[5] = Whole body fluorescent cryo-imaging, tissue distribution (Example 13); format: in vivo, mouse; conditions: 0.7 mg/kg i.v., 1 hour post dosing
Method: Materials and methods: Compound 124 was supplied as a 10 mM stock solution in DMSO. NZM011 cells were grown in AMEM, 5% FBS, 5 μg/mL insulin, 5 μg/mL transferrin, 5 ng/mL sodium selenite at 37 °C with 5% O2, 90% N2 5% CO2. The study was performed in 6-week-old male NIH-III athymic mice (strain code 201). Work was carried out by Ichor Biosciences La Fayette NY, USA. Mice were injected on one flank with 5×10^6 NZM11 cells in a 50:50 matrigel:media suspension with a 22G needle. When tumours reach over 500 mm3 the mice were administered intravenously (tail vein) with a solution of compound 124 in phosphate buffered saline at a dose of 0.7 mg/kg. The mice were euthanized at 1 hour or 6 hours post dosing and frozen for cryoimaging. A control mouse received no tumour cells or compound 124 and was euthanized and frozen for cryoimaging at the same time as the treated mice.
Processed animals were cryoimaged imaged at BioInvision in Cleveland Ohio. Whole animal was sectioned at 40 microns and imaged using brightfield at fluorescent modes (503 nm). In-plane pixel size 10 microns. Mouse #1 with tumour on one flank at 500 mm3, treated with compound 124 (0.7 mg/kg) and euthanised 1 hour post treatment. Mouse #6 no tumour or compound 124 treatment euthanised on same day.

Compound	targeting / fluorescence intensities [1]	targeting / fluorescence intensities [2]	effect on proliferation [3]	morphology under microscope [3]	uptake [4]	124-specific fluorescence in bladder [5]	124-specific fluorescence in kidneys [5]	fluorescence in any other tissues [5]	route of excretion [5]
CC1=CC(C)=[N+]2C1=Cc1ccc(CCCn3cc(CCNC(=O)/C=C/NC(=O)[C@@H]4OC(C)(C)OCC4(C)C)nn3)n1[B-]2(F)F [Compound 125, (R,E)-N-((((3-[4,4-difluoro-5,7-dimethyl-4-bora-3a,4a-diaza-s-indacene-3-yl]propyl)-1H-1,2,3-triazol-4-yl)eth-ylamino)-3-oxoprop-1-enyl)-2,2,5,5-tetramethyl-1,3-dioxane-4-carboxamide]	showed targeting	showed targeting	–	–	–	–	–	–	–
CC1=CC(C)=[N+]2C1=Cc1ccc(CCCn3cc(CCNC(=O)/C=C/NC(=O)[C@H](O)C(C)(C)CO)nn3)n1[B-]2(F)F [Compound 124]	–	–	comparable proliferation to DMSO control cells; also recorded: no significant difference on proliferation; also recorded: little to no effect on proliferation	do not exhibit significant changes on morphology	no significant uptake	strong 124-specific fluorescence; also recorded: Specific 124-fluorescence was observed; also recorded: strong fluorescence observed in the bladder; also recorded: Fluorescence specific for compound 124 was seen	124-specific fluorescence was observed in the kidney medulla and kidneys (mainly renal medulla)	No fluorescence	renal clearance; also recorded: renal route
